Measured values published in patent publication US20180155451A1 (published 2018).

T1: FcγRIIb (human, UniProt P31994 43-217)
T1 construct: extracellular domain; also called FcgRIIb; 2b; not shown: His tag at the C terminus
T1 sequence (looked up): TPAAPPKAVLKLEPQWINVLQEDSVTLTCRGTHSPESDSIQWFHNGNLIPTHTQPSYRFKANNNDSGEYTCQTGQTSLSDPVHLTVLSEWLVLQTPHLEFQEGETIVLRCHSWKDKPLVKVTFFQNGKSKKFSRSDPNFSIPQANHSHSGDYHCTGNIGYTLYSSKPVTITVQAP

T2: FcγRIIb extracellular domain with C-terminal His tag (human, UniProt P31994 43-217)
T2 construct: extracellular domain; soluble receptor expressed in FreeStyle293 cells, used as analyte in Biacore; also called FcgRIIb; 2b; not shown: His tag attached to the C terminus
T2 sequence (looked up): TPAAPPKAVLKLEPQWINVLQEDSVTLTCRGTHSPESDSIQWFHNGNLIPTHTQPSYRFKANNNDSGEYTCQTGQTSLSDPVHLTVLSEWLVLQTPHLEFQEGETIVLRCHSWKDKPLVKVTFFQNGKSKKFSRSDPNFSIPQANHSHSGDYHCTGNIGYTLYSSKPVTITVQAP

B1: GpH7-A5/GpH7-B3 variant S298_18N/GpL16-k0 (antibody, human IgG1, kappa)
heavy 1: not shown
heavy 2: not shown
light: DIVMTQSPLSLPVTPGEPASISCQASESLVHSNRNTYLHWYLQKPGQSPQLLIYKVSNRFSGVPDRFSGSGSGTDFTLKISRVEAEDVGVYYCSQNTHVPPTFGQGTKVEIERTVAAPSVFIFPPSDEQLKSGTASVVCLLNNFYPREAKVQWKVDNALQSGNSQESVTEQDSKDSTYSLSSTLTLSKADYEKHKVYACEVTHQGLSSPVTKSFNRGEC
notes: He Ab: mutation only in the GpH7-B3 H chain; EU numbering; also called He Ab
B2: GpH7-A5/GpH7-B3 variant D270_01G/GpL16-k0 (antibody, human IgG1, kappa)
heavy 1: not shown
heavy 2: not shown
light: DIVMTQSPLSLPVTPGEPASISCQASESLVHSNRNTYLHWYLQKPGQSPQLLIYKVSNRFSGVPDRFSGSGSGTDFTLKISRVEAEDVGVYYCSQNTHVPPTFGQGTKVEIERTVAAPSVFIFPPSDEQLKSGTASVVCLLNNFYPREAKVQWKVDNALQSGNSQESVTEQDSKDSTYSLSSTLTLSKADYEKHKVYACEVTHQGLSSPVTKSFNRGEC
notes: heterodimerized anti-glypican-3 IgG1; alteration in the GpH7-B3 chain only; also called He Ab
B3: GpH7-A5/GpH7-B3 variant Y296_18N/GpL16-k0 (antibody, human IgG1, kappa)
heavy 1: not shown
heavy 2: not shown
light: DIVMTQSPLSLPVTPGEPASISCQASESLVHSNRNTYLHWYLQKPGQSPQLLIYKVSNRFSGVPDRFSGSGSGTDFTLKISRVEAEDVGVYYCSQNTHVPPTFGQGTKVEIERTVAAPSVFIFPPSDEQLKSGTASVVCLLNNFYPREAKVQWKVDNALQSGNSQESVTEQDSKDSTYSLSSTLTLSKADYEKHKVYACEVTHQGLSSPVTKSFNRGEC
notes: as for B1
B4: GpH7-A5/GpH7-B3 variant Y296_06M/GpL16-k0 (antibody, human IgG1, kappa)
heavy 1: not shown
heavy 2: not shown
light: DIVMTQSPLSLPVTPGEPASISCQASESLVHSNRNTYLHWYLQKPGQSPQLLIYKVSNRFSGVPDRFSGSGSGTDFTLKISRVEAEDVGVYYCSQNTHVPPTFGQGTKVEIERTVAAPSVFIFPPSDEQLKSGTASVVCLLNNFYPREAKVQWKVDNALQSGNSQESVTEQDSKDSTYSLSSTLTLSKADYEKHKVYACEVTHQGLSSPVTKSFNRGEC
notes: as for B1
B5: GpH7-A5/GpH7-B3 variant Y296_12R/GpL16-k0 (antibody, human IgG1, kappa)
heavy 1: not shown
heavy 2: not shown
light: DIVMTQSPLSLPVTPGEPASISCQASESLVHSNRNTYLHWYLQKPGQSPQLLIYKVSNRFSGVPDRFSGSGSGTDFTLKISRVEAEDVGVYYCSQNTHVPPTFGQGTKVEIERTVAAPSVFIFPPSDEQLKSGTASVVCLLNNFYPREAKVQWKVDNALQSGNSQESVTEQDSKDSTYSLSSTLTLSKADYEKHKVYACEVTHQGLSSPVTKSFNRGEC
notes: as for B1
B6: GpH7-A5/GpH7-B3 variant Y296_04F/GpL16-k0 (antibody, human IgG1, kappa)
heavy 1: not shown
heavy 2: not shown
light: DIVMTQSPLSLPVTPGEPASISCQASESLVHSNRNTYLHWYLQKPGQSPQLLIYKVSNRFSGVPDRFSGSGSGTDFTLKISRVEAEDVGVYYCSQNTHVPPTFGQGTKVEIERTVAAPSVFIFPPSDEQLKSGTASVVCLLNNFYPREAKVQWKVDNALQSGNSQESVTEQDSKDSTYSLSSTLTLSKADYEKHKVYACEVTHQGLSSPVTKSFNRGEC
notes: as for B1
B7: GpH7-A5/GpH7-B3 variant Y296_19Q/GpL16-k0 (antibody, human IgG1, kappa)
heavy 1: not shown
heavy 2: not shown
light: DIVMTQSPLSLPVTPGEPASISCQASESLVHSNRNTYLHWYLQKPGQSPQLLIYKVSNRFSGVPDRFSGSGSGTDFTLKISRVEAEDVGVYYCSQNTHVPPTFGQGTKVEIERTVAAPSVFIFPPSDEQLKSGTASVVCLLNNFYPREAKVQWKVDNALQSGNSQESVTEQDSKDSTYSLSSTLTLSKADYEKHKVYACEVTHQGLSSPVTKSFNRGEC
notes: as for B1
B8: GpH7-A5/GpH7-B3 variant Y296_03V/GpL16-k0 (antibody, human IgG1, kappa)
heavy 1: not shown
heavy 2: not shown
light: DIVMTQSPLSLPVTPGEPASISCQASESLVHSNRNTYLHWYLQKPGQSPQLLIYKVSNRFSGVPDRFSGSGSGTDFTLKISRVEAEDVGVYYCSQNTHVPPTFGQGTKVEIERTVAAPSVFIFPPSDEQLKSGTASVVCLLNNFYPREAKVQWKVDNALQSGNSQESVTEQDSKDSTYSLSSTLTLSKADYEKHKVYACEVTHQGLSSPVTKSFNRGEC
notes: as for B1
B9: GpH7-A5/GpH7-B3 variant Y296_02A/GpL16-k0 (antibody, human IgG1, kappa)
heavy 1: not shown
heavy 2: not shown
light: DIVMTQSPLSLPVTPGEPASISCQASESLVHSNRNTYLHWYLQKPGQSPQLLIYKVSNRFSGVPDRFSGSGSGTDFTLKISRVEAEDVGVYYCSQNTHVPPTFGQGTKVEIERTVAAPSVFIFPPSDEQLKSGTASVVCLLNNFYPREAKVQWKVDNALQSGNSQESVTEQDSKDSTYSLSSTLTLSKADYEKHKVYACEVTHQGLSSPVTKSFNRGEC
notes: as for B1

How the values were obtained:
FcγRIa = biological target: T3, FcγRIa (human, UniProt P12314 16-292); assay: SPR (Biacore), captured antibody, soluble FcγR; relative to GpH7-A5/GpH7-B3/GpL16-k0
T3 construct: extracellular domain; also called FcgRI; 1a; not shown: His tag at the C terminus
T3 sequence (P12314 16-292): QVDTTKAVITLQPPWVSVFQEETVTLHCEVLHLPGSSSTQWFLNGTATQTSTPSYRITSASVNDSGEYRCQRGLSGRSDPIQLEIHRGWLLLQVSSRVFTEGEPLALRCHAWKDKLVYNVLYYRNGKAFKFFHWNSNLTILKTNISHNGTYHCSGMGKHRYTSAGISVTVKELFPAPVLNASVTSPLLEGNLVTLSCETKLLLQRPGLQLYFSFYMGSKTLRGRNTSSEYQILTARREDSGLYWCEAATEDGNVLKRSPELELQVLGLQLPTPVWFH

FcγRIIb = biological target: T1, FcγRIIb; assay: as above
[1] = biological target: T4, FcγRIa extracellular domain with C-terminal His tag (human, UniProt P12314 16-292); assay: SPR (Biacore), antibody captured on antigen peptide chip, FcγR as analyte; relative binding
T4 construct: extracellular domain; soluble receptor expressed in FreeStyle293 cells, used as analyte in Biacore; also called FcgRI; 1a; not shown: His tag attached to the C terminus
T4 sequence (P12314 16-292): as above

[2] = biological target: T2, FcγRIIb extracellular domain with …; assay: as above

| Binder | He/Con_1a (FcγRIa) | He/Con_2b (FcγRIIb) | He/Con_1a [1] | He/Con_2b [2] |
| --- | --- | --- | --- | --- |
| B1 | 108 relative, HeCon Ab = 100 | 48.1 relative, HeCon Ab = 100 |  |  |
| B2 |  |  | 76.3 % of control GpH7-A5/GpH7-B3/GpL16-k0 (=100) | 30.5 % of control GpH7-A5/GpH7-B3/GpL16-k0 (=100) |
| B3 | 106 relative, HeCon Ab = 100 | 91.5 relative, HeCon Ab = 100 |  |  |
| B4 | 104 relative, HeCon Ab = 100 | 87.8 relative, HeCon Ab = 100 |  |  |
| B5 | 106 relative, HeCon Ab = 100 | 79.5 relative, HeCon Ab = 100 |  |  |
| B6 | 104 relative, HeCon Ab = 100 | 99.2 relative, HeCon Ab = 100 |  |  |
| B7 | 112 relative, HeCon Ab = 100 | 89.3 relative, HeCon Ab = 100 |  |  |
| B8 | 104 relative, HeCon Ab = 100 | 79.3 relative, HeCon Ab = 100 |  |  |
| B9 | 103 relative, HeCon Ab = 100 | 82 relative, HeCon Ab = 100 |  |  |
